Laboratory results as given in PMC4159622.

How the values were obtained:
FBXO11 [1] = biological target: FBXO11 (UniProt Q86XK2); assay: co-IP of alanine scanning mutants; details: reference: wild type; sites S11
FBXO11 [2] = biological target: FBXO11 (UniProt Q86XK2); assay: co-IP with anti-HA; details: reference: wild type; sites S11

binding against the reference (FBXO11 [1]) | binding against the reference (FBXO11 [2]) | Substance
lost |  | SNAIL (from UniProt O95863) S11A
 | lost | SNAIL (from UniProt O95863) S11V
